From patent US10463750 come the findings set out here.

Where only a bound is given, the exact number is not on record here.

Experiment [1] addresses 2C TCR (transgenic T cell receptor of CD8+ 2C T cells) (mouse). Put plainly: cell-based or functional assay.
For experiment [2], the target named is Pmel TCR (tumor-antigen gp-100 specific transgenic TCR of CD8+ Pmel T cells) (mouse). Put plainly: cell-based or functional assay.

In the case of “QL9 peptide loaded L^d-Ig dimer (from UniProt P61769 21-119) (peptide-MHC)”, in experiment [1], the lysis of T2 cells, pre-targeted assay, E:T 10:1, 51Cr release is < 20% and the re-directional lysis specific window (Ld-QL9-Ig/CD19 against Ld-QL9-Ig beads) was < 15%.

Take “GP 100 peptide loaded D^b-Ig dimer (from UniProt P61769 21-119) (peptide-MHC)”: in experiment [2], the lysis of T2 cells, pre-targeted assay, E:T 10:1, 51Cr release was < 40% and the re-directional specific lysis window (Db-gp100-Ig/CD19 against Db-gp100-Ig beads) was found to be 5%.

In experiment [1], “1B2 (an anti-clonotypic 2C TCR-specific mAb; mouse IgG1 isotype) (antibody)” gave a 1B2/CD19 specific re-direction lysis of T2 cells, pre-targeted protocol, 51Cr release of 20 to 25%; a PKH26/67 double positive cell conjugates (2C/T2 conjugate formation) of 19.5%; a re-directional specific lysis window of T2 cells (1B2/CD19 minus 1B2 beads), co-culture, E:T 1:1, 51Cr release of 30%; a re-directional specific lysis window of T2 cells (1B2/CD19 minus 1B2 beads), co-culture, E:T 2:1, 51Cr release of 20%. In experiment [1], the re-directional specific lysis window of T2 cells (1B2/CD19 minus 1B2 beads), co-culture, E:T 5:1, 51Cr release is 10% and the specific lysis of T2 cells, pre-targeted protocol (FIG. 4B), 51Cr release was 20%.
